± gives the standard error. For part of these data: Variants at the floor of the assay were thinned out.
B1: glmS ribozyme (parent)
chain: AUAAAAGCGCCAGAACUACAGAAAUGUAGUUGACGAGGAGGAGGUUUAUCGAAUUUUCGGCGGAUGCCUCCAAA

Tests used:
Settings in all cases: with glucosamine-6-phosphate
glucosamine-6-phosphate [1] = variants of: B1; test: kcat; higher = faster cleavage; RNA array
Summary of the method: (§1)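 Barcoded ribozyme variants on sequenced MiSeq chips were transcribed in situ by E. coli RNA polymerase and followed at 37 °C through a hybridised Cy3 probe. Glucosamine-6-phosphate at 40 μM to 10 mM in HEPES/KCl/Mg(OAc)2 buffer was flowed in, and tiles were imaged over ~14 h. Signals were normalised to baseline and to non-cleaving reference variants, and per-tile medians were fit to one- or two-exponential decays to give kobs. Weighted Michaelis–Menten fits across concentrations gave kcat and KM.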

glucosamine-6-phosphate [2] = variants of: B1; test: self-cleavage kobs at 160 uM GlcN6P; higher = faster cleavage; RNA array
Summary of the method: as §1

glucosamine-6-phosphate [3] = variants of: B1; test: self-cleavage kobs at 2500 uM GlcN6P; higher = faster cleavage; RNA array
Summary of the method: as §1

glucosamine-6-phosphate [4] = variants of: B1; test: KM; higher = weaker cofactor use; RNA array
Summary of the method: as §1

glucosamine-6-phosphate [5] = variants of: B1; test: self-cleavage kobs at 640 uM GlcN6P; higher = faster cleavage; RNA array
Summary of the method: as §1

glucosamine-6-phosphate [6] = variants of: B1; test: self-cleavage kobs at 10000 uM GlcN6P; higher = faster cleavage; RNA array
Summary of the method: as §1

glucosamine-6-phosphate [7] = variants of: B1; test: self-cleavage kobs at 40 uM GlcN6P; higher = faster cleavage; RNA array
Summary of the method: as §1

Variant | kcat (glucosamine-6-phosphate [1]) [s⁻¹] | self-cleavage kobs at 160 uM GlcN6P (glucosamine-6-phosphate [2]) [s⁻¹] | self-cleavage kobs at 2500 uM GlcN6P (glucosamine-6-phosphate [3]) [s⁻¹] | KM (glucosamine-6-phosphate [4]) [µM] | self-cleavage kobs at 640 uM GlcN6P (glucosamine-6-phosphate [5]) [s⁻¹] | self-cleavage kobs at 10000 uM GlcN6P (glucosamine-6-phosphate [6]) [s⁻¹] | self-cleavage kobs at 40 uM GlcN6P (glucosamine-6-phosphate [7]) [s⁻¹]
C16G C50A U57C C68U C71G | 2.93e-05 ± 8.8e-06 | – | – | – | – | – | –
G43U U56C | < 1e-05 | < 1e-05 | < 1e-05 | – | – | – | –
A12G A39C | 0.000267 ± 1.7e-05 | – | 0.000144 ± 1.2e-05 | 2130 ± 300 | 6.42e-05 ± 1.1e-05 | 0.00022 ± 2.2e-05 | –
C50A U54G U55C | 1.47e-05 ± 3.9e-06 | – | – | – | – | – | –
C11A G59U | 0.0133 ± 0.0031 | 0.000683 ± 8.7e-05 | 0.00743 ± 0.0012 | 2310 ± 700 | 0.00335 ± 0.00043 | 0.0105 ± 0.0013 | 0.000273 ± 2.8e-05
U55G G66U | 0.00299 ± 0.00092 | 8.99e-05 ± 1.6e-05 | 0.00126 ± 0.00021 | 4240 ± 1800 | 0.00054 ± 0.0001 | 0.00195 ± 0.00034 | 4.47e-05 ± 1.7e-05
A15G C16G | 0.00525 ± 0.001 | 0.000213 ± 6.8e-05 | 0.00326 ± 0.00063 | 2660 ± 820 | 0.0011 ± 0.00023 | 0.00391 ± 0.00059 | 9.12e-05 ± 2.2e-05
A14U A53C | 0.00136 ± 0.00017 | 9.57e-05 ± 1.5e-05 | 0.000834 ± 7.7e-05 | 1970 ± 410 | 0.000309 ± 3.9e-05 | 0.00105 ± 0.00014 | 3.59e-05 ± 9.1e-06
C61G C67U | 2.12e-05 ± 5.2e-06 | – | – | – | – | – | –
C61G C67A | 2.67e-05 ± 6.5e-06 | – | – | – | 3.33e-05 ± 1.4e-05 | – | –
G35C G40U | < 1e-05 | – | < 1e-05 | – | < 1e-05 | < 1e-05 | < 1e-05
C16A U69G | 7.88e-05 ± 1.9e-05 | – | 6.89e-05 ± 1.5e-05 | – | 7.48e-05 ± 1.5e-05 | – | –
A14G A64G | 0.0806 ± 0.028 | 0.00428 ± 0.001 | – | 2030 ± 810 | 0.0212 ± 0.0065 | 0.0677 ± 0.017 | 0.00184 ± 0.00024
A15G G41C | 0.000647 ± 4.6e-05 | 4.44e-05 ± 1.5e-05 | 0.00032 ± 5.7e-05 | 2170 ± 310 | 0.000149 ± 2.7e-05 | 0.000544 ± 6.2e-05 | –
U46C C70U | 0.00656 ± 0.0027 | 0.00026 ± 3.8e-05 | 0.00301 ± 0.00041 | – | 0.00156 ± 0.00017 | 0.00508 ± 0.00066 | 0.00017 ± 2.3e-05
A6U A14U | 4.98e-05 ± 1.9e-06 | – | 4.51e-05 ± 1.4e-05 | 310 ± 92 | 3.6e-05 ± 1.2e-05 | 4.79e-05 ± 6.3e-06 | –
C58G C71G | 2.97e-05 ± 5.4e-06 | – | 3.56e-05 ± 1.5e-05 | – | 3.12e-05 ± 1.3e-05 | – | –
A48C U54C | 0.00042 ± 0.00013 | – | 0.000224 ± 6e-05 | – | 9.71e-05 ± 2.4e-05 | 0.000316 ± 9.5e-05 | –

Variant | kcat (glucosamine-6-phosphate [1]) [s⁻¹] | self-cleavage kobs at 160 uM GlcN6P (glucosamine-6-phosphate [2]) [s⁻¹] | self-cleavage kobs at 2500 uM GlcN6P (glucosamine-6-phosphate [3]) [s⁻¹] | KM (glucosamine-6-phosphate [4]) [µM] | self-cleavage kobs at 640 uM GlcN6P (glucosamine-6-phosphate [5]) [s⁻¹] | self-cleavage kobs at 10000 uM GlcN6P (glucosamine-6-phosphate [6]) [s⁻¹] | self-cleavage kobs at 40 uM GlcN6P (glucosamine-6-phosphate [7]) [s⁻¹]
G43U A53G | 4.73e-05 ± 1.7e-06 | – | 3.6e-05 ± 1.5e-05 | 793 ± 120 | – | – | < 1e-05
A64G C71U | 0.00692 ± 0.0014 | 0.000417 ± 4.5e-05 | 0.00386 ± 0.00036 | 2040 ± 540 | 0.00177 ± 0.00015 | 0.00552 ± 0.00084 | 0.000158 ± 1.6e-05
A14U U55G | 0.00848 ± 0.0029 | 0.000508 ± 8e-05 | 0.0041 ± 0.00047 | 2280 ± 1100 | 0.00176 ± 0.00023 | 0.0105 ± 0.0021 | 0.000209 ± 3.1e-05
A39C A52G | 0.000297 ± 5.1e-05 | – | 0.00017 ± 2.1e-05 | 2850 ± 940 | 4.74e-05 ± 8.3e-06 | 0.000217 ± 2.6e-05 | –
C11U U65A C71U | 0.000194 ± 1.4e-05 | – | 8.15e-05 ± 1.6e-05 | 3610 ± 470 | 2.73e-05 ± 1.3e-05 | 0.000139 ± 4.3e-05 | –
G37U U57C | < 1e-05 | – | < 1e-05 | – | – | < 1e-05 | –
A36C C50U | < 1e-05 | – | – | – | – | – | < 1e-05
G40A G66C | 0.000903 ± 0.00019 | 6.89e-05 ± 1.1e-05 | 0.00045 ± 8.6e-05 | 2220 ± 740 | 0.000166 ± 3.2e-05 | 0.000774 ± 9.9e-05 | 3.77e-05 ± 1.3e-05
A6G A39U | 0.000276 ± 7.5e-06 | 2.95e-05 ± 1.1e-05 | 0.000176 ± 2.3e-05 | 1490 ± 84 | 8.14e-05 ± 1.2e-05 | 0.000239 ± 3.2e-05 | –
G41A G66U | 8e-05 ± 4.8e-06 | – | 4.07e-05 ± 7.8e-06 | 2190 ± 390 | 2.19e-05 ± 1e-05 | 6.65e-05 ± 8.4e-06 | –
G37U C71A | 1.95e-05 ± 4.6e-06 | – | – | – | – | – | –
C16A C50A U69C | 3.42e-05 ± 1.5e-05 | – | 5.24e-05 ± 2.3e-05 | – | – | – | –
G37C C71A | 1.96e-05 ± 6.3e-06 | – | – | – | – | – | –
U31C C58U | 2.26e-05 ± 7.2e-06 | – | 2.64e-05 ± 1.3e-05 | – | – | – | –
A42G C68A | 1.2e-05 ± 4.3e-06 | – | – | – | – | – | –
C61U C70G | 1.1e-05 ± 2e-06 | – | – | – | – | – | –
G29C U46C | 9.55e-05 ± 4.5e-06 | – | 8.67e-05 ± 2.2e-05 | 535 ± 120 | 5.09e-05 ± 1.5e-05 | 8.84e-05 ± 1.4e-05 | –
C34U C50A | 1.45e-05 ± 5.7e-06 | – | – | – | – | – | –
